Each block holds one binder with its values, some of them ahead of it.
Experiments:
Human soluble IL-6R [1] = molecular target: T1, Human soluble IL-6R (human, UniProt P08887 20-358); experiment: Alphascreen, 100 nM Nanobody, 0.4 nM bio-IL-6R; competitor: reference Fab
T1 construct: Soluble recombinant form; biotinylated in some assays; also called hIL-6R; human IL-6R
T1 sequence (looked up): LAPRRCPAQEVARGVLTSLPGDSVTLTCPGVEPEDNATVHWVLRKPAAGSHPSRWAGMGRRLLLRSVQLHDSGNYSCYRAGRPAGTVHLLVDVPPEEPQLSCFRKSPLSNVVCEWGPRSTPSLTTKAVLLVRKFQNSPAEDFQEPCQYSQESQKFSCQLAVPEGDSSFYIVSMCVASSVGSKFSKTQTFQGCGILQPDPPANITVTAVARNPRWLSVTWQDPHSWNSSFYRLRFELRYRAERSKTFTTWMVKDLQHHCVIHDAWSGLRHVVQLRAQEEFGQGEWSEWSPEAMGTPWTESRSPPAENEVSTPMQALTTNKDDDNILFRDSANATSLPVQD

Human soluble IL-6R [2] = molecular target: T1, Human soluble IL-6R; experiment: Alphascreen, inhibition of bio-IL-6 binding to IL-6R
Method: (§1) Finally streptavidin donor beads were added and after 1 hour incubator the plate was read on the Envision microplate reader.

Human soluble IL-6R [3] = molecular target: T1, Human soluble IL-6R; experiment: inhibition of the IL-6/IL-6R interaction, summary table C-13
Method: as §1

Mouse IL-6R = molecular target: T2, Mouse IL-6R (mouse, UniProt P22272 20-364, limits assumed); experiment: ELISA: plate coated with 1 µg/ml mouse IL-6R, 500 nM Nanobody, anti-myc + anti-mouse-HRP
T2 construct: also called mouse sIL-6R
T2 sequence (looked up): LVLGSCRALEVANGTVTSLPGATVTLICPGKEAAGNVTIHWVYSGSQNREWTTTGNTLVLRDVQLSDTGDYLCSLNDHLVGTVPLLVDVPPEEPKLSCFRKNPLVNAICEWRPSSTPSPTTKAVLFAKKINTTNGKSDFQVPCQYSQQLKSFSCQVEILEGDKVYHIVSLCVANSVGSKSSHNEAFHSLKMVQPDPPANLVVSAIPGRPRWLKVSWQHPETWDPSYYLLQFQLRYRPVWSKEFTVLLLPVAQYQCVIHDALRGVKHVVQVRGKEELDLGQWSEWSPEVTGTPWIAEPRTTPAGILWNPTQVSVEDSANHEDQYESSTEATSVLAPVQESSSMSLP
Method: Detection was performed with anti-myc and anti-mouse-HRP as first and second antibody respectively.

Human soluble IL-6R [4] = molecular target: T1, Human soluble IL-6R; experiment: competition for IL-6R, competitor reference Fab, summary table C-13
Human soluble IL-6R [5] = molecular target: T1, Human soluble IL-6R; experiment: SPR Biacore 3000, IL-6R amine-coupled to CM5
Method: (§2) Nanobodies were injected at 5 different concentrations between 1 and 50 nM. Flow rate was 45 μl/min in all experiments. Association and dissociation phase were 3 and 10 min, respectively. The chip was regenerated using Glycine/HCl pH 1.5.

Human soluble IL-6R [6] = molecular target: T1, Human soluble IL-6R; experiment: summary table C-13 of Nanobody characteristics, Kd on IL-6R; summary table C-13
[7] = molecular target: T3, Human membrane IL-6R on cells (human, UniProt P08887 20-468); experiment: cell-based or functional assay
T3 sequence (looked up): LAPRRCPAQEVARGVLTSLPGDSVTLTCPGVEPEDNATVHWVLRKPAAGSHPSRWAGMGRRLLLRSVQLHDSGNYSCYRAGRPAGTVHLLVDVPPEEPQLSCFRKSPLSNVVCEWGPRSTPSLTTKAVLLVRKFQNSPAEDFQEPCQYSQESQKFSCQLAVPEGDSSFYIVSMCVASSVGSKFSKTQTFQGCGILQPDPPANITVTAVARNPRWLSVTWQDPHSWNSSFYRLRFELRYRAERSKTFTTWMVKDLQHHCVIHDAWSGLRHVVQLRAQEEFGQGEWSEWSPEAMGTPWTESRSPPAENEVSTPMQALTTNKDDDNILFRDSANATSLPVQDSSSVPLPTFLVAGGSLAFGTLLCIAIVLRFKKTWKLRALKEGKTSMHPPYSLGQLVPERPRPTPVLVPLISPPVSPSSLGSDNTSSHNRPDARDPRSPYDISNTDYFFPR

[8] = molecular target: T3, Human membrane IL-6R on cells; experiment: cell-based or functional assay; remark: listed apart in the source
Human plasma sIL-6R [9] = molecular target: T4, Human plasma sIL-6R (human, UniProt P08887 20-355, limits assumed); experiment: plasma potency ELISA, human plasma; human plasma
T4 construct: also called plasma-derived human IL-6R
T4 sequence (looked up): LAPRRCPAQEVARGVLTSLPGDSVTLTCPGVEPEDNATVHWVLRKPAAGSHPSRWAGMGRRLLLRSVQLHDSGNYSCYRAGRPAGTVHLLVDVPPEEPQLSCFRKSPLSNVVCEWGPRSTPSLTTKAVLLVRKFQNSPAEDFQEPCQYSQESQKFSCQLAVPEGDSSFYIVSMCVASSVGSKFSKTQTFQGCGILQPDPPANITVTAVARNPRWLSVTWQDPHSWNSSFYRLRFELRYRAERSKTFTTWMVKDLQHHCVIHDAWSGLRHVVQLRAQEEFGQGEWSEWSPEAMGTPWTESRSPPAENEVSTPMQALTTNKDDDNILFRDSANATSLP

Human plasma sIL-6R [10] = molecular target: T4, Human plasma sIL-6R; experiment: plasma potency ELISA, human plasma, high IL-6 (EC95)
Cyno plasma sIL-6R [11] = molecular target: T5, Cyno plasma sIL-6R (cynomolgus monkey, UniProt A0A2K5WN54 60-396); experiment: plasma potency ELISA, human against cyno plasma
T5 construct: also called cynomolgus sIL-6R
T5 sequence: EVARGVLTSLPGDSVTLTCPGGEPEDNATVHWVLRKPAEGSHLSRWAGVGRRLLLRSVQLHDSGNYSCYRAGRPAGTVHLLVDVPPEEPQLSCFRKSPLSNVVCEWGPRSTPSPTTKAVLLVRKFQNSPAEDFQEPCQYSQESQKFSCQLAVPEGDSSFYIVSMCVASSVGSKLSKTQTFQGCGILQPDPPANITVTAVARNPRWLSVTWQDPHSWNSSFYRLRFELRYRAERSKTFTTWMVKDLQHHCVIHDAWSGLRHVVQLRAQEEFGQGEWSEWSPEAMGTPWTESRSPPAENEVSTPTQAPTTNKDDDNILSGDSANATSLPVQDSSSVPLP

Human plasma sIL-6R [12] = molecular target: T4, Human plasma sIL-6R; experiment: plasma potency assay, human plasma, 2.4 nM IL6; blocked ligand IL-6
Method: (§3) All 5 affinity matured Nanobodies and the sequence optimized Nanobody were also tested in a plasma potency assay. […] TMB was used as substrate.

Cyno plasma sIL-6R [13] = molecular target: T5, Cyno plasma sIL-6R; experiment: plasma potency ELISA, cyno plasma + human IL-6 50 ng/mL; sIL-6R captured on BN-12, bound IL-6 detected; blocked ligand IL-6
Human plasma sIL-6R [14] = molecular target: T4, Human plasma sIL-6R; experiment: plasma potency ELISA, human plasma
[15] = molecular target: T3, Human membrane IL-6R on cells; experiment: cell-based or functional assay; remark: listed apart in the source
Human plasma sIL-6R [16] = molecular target: T4, Human plasma sIL-6R; experiment: plasma potency ELISA, human plasma, normal IL-6 (EC50)
Cyno plasma sIL-6R [17] = molecular target: T5, Cyno plasma sIL-6R; experiment: plasma potency ELISA, cyno plasma
Human plasma sIL-6R [18] = molecular target: T4, Human plasma sIL-6R; experiment: plasma potency assay, human plasma, 42 nM IL6; blocked ligand IL-6
Method: as §3

Human plasma sIL-6R [19] = molecular target: T4, Human plasma sIL-6R; experiment: plasma potency ELISA, human plasma + human IL-6 50 ng/mL; sIL-6R captured on BN-12, bound IL-6 detected; blocked ligand IL-6
[20] = molecular target: T3, Human membrane IL-6R on cells; experiment: cell-based or functional assay; remark: listed apart in the source
[21] = molecular target: T3, Human membrane IL-6R on cells; experiment: cell-based or functional assay; remark: listed apart in the source
Human soluble IL-6R [22] = molecular target: T1, Human soluble IL-6R; experiment: Biacore off-rate, periplasmic extract
Human soluble IL-6R [23] = molecular target: T1, Human soluble IL-6R; experiment: SPR Biacore 3000, IL-6R amine-coupled to CM5; paired with the second koff of IL6R06 (r17c3)
Method: as §2

Human soluble IL-6R [24] = molecular target: T1, Human soluble IL-6R; experiment: SPR Biacore 3000, IL-6R amine-coupled to CM5; first koff listed; a separate determination, not the one behind the Kd
Human soluble IL-6R [25] = molecular target: T1, Human soluble IL-6R; experiment: summary table C-13 of Nanobody characteristics, Kd on IL-6R
Method: as §2

[26] = molecular target: T3, Human membrane IL-6R on cells; experiment: cell-based or functional assay; remark: listed apart in the source

Residual reference-Fab binding to IL-6R (%) (Human soluble IL-6R [1]): 49%
IC50 (Human soluble IL-6R [2]): 0.726 nM
IC50 (Human soluble IL-6R [3]): 0.73 nM
binding result (Mouse IL-6R): no binding (tested: 500 nM)
Ref Fab competition (%) (Human soluble IL-6R [4]): 49%
Kd (Human soluble IL-6R [5]): 0.4 nM
koff (Human soluble IL-6R [5]): 0.00011 s⁻¹
kon (Human soluble IL-6R [5]): 262000 M⁻¹ s⁻¹
Kd (Human soluble IL-6R [6]): 0.4 nM
B1: IL6R01 (VHH)
VHH: EVQLVESGGGLVQPGGSLRLSCAASGFPLDYYAIGWFRQAPGKEREGVSCISSSDGSTYYADSVKGRFTISRDNAKNTVYLQMNSLKPEDTAVYYCALVHTTAQATGVPQREYEYEWWGQGTQVTVSS
notes: also called PMP28E11; not shown: C-terminal c-myc and (His)6 tags

IC50 (nM), TF-1 proliferation at 5000 IU/mL IL-6 [7]: 144 nM
IC50 (nM) + HSA, XG-1 proliferation assay [8]: 0.47 nM
IC50 (Human plasma sIL-6R [9]): 0.258 nM
IC50 (Human plasma sIL-6R [10]): 1.69 nM
Ratio (human/cyno) of IC50 (Cyno plasma sIL-6R [11]): 1.55
IC50 (Human plasma sIL-6R [12]): 0.2 nM
IC50 (read off the curve) (Cyno plasma sIL-6R [13]): ~0.01 nM
Ratio (high/low) of IC50 (Human plasma sIL-6R [14]): 6.54
IC50 (nM), TF-1 proliferation at 100 IU/mL IL-6 [15]: 0.921 nM
IC50 (Human plasma sIL-6R [16]): 0.258 nM
IC50 (Cyno plasma sIL-6R [17]): 0.166 nM
IC50 (Human plasma sIL-6R [18]): 1.7 nM
IC50 (read off the curve) (Human plasma sIL-6R [19]): ~0.04 nM
B2: Reference IgG (antibody, V domains shown)
VH: QVQLQESGPGLVRPSQTLSLTCTVSGYSITSDHAWSWVRQPPGRGLEWIGYISYSGITTYNPSLKSRVTMLRDTSKNQFSLRLSSVTAADTAVYYCARSLARTTAMDYWGQGSLVTVSS
VL: DIQMTQSPSSLSASVGDRVTITCRASQDISSYLNWYQQKPGKAPKLLIYYTSRLHSGVPSRFSGSGSGTDFTFTISSLQPEDIATYYCQQGNTLPYTFGQGTKVEIKR
notes: Full-length human IgG1 produced in CHO cells

Residual reference-Fab binding to IL-6R (%) (Human soluble IL-6R [1]): 36%
IC50 (Human soluble IL-6R [2]): 1.21 nM
IC50 (Human soluble IL-6R [3]): 1.21 nM
IC50 (nM), XG-1 cell proliferation [20]: 42.1 nM
IC50 (nM) XG-1 [21]: 42.1 nM
koff (Human soluble IL-6R [22]): 0.000886 s⁻¹
Kd (Human soluble IL-6R [23]): 7.1 nM
kon (Human soluble IL-6R [23]): 1.07e+06 M⁻¹ s⁻¹
Ref Fab competition (%) (Human soluble IL-6R [4]): 36%
koff (Human soluble IL-6R [24]): 0.000886 s⁻¹
koff (Human soluble IL-6R [5]): 0.00757 s⁻¹
Kd (Human soluble IL-6R [25]): 7.1 nM
IC50 (nM), TF1 cell proliferation [26]: 138 nM
B3: IL6R06 (VHH)
VHH: EVQLVESGGGLVQAGGSLRLSCAASGNIFDDNTMGWTWNRQPPGKQRELVAIIATDGSTNYADSVKGRFTISRDNAKNTVYLQMNSLKPEDTAVYYCNLFSLRLGRDYWGQGTQVTVSS
notes: also called PMP32E2; not shown: C-terminal c-myc and (His)6 tags

— patent publication US20120077731A1 (Ablynx, published 2012)
